Measurements: the supplement of paper PMC9112550, “Optimization of the antimicrobial peptide Bac7 by deep mutational scanning” (BMC Biology, 2022)

Test system: Escherichia coli TOP10
Experiment: shrunken log2 fold change of peptide-encoding DNA abundance (4.5 h post-induction vs induction); higher = less antimicrobial activity (less host growth inhibition)
Settings: time post-induction: 4.5 h; library: site-saturation at positions 5, 18, 19, 20
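Also: peptides expressed intracellularly from a pBAD plasmid library in pooled LB shake-flask culture, induced with 0.3% L-arabinose, DNA abundance read by NGS, three biological replicates, DESeq2 with apeglm shrinkage.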

Sequence	shrunken log2 fold change
RRIRARPPRLPRPRPRPPQFPRP	0.953
RRIRLRPPRLPRPRPRPEDHPRP	-0.0495
RRIRSRPPRLPRPRPRPVAHPRP	-0.0951
RRIRHRPPRLPRPRPRPYYYPRP	-1.31
RRIRNRPPRLPRPRPRPILWPRP	0.123
RRIRMRPPRLPRPRPRPFHAPRP	0.199
RRIRKRPPRLPRPRPRPLTWPRP	0.13
RRIRIRPPRLPRPRPRPRAGPRP	1.6
RRIRFRPPRLPRPRPRPSNYPRP	-0.396
RRIRLRPPRLPRPRPRPTPDPRP	0.626
RRIRQRPPRLPRPRPRPSVQPRP	-0.0622
RRIRYRPPRLPRPRPRPVYAPRP	-0.683
RRIRCRPPRLPRPRPRPSNEPRP	-0.379
RRIRPRPPRLPRPRPRPKAIPRP	0.11
RRIRCRPPRLPRPRPRPQQHPRP	-0.113
RRIRRRPPRLPRPRPRPKDAPRP	0.0371
RRIRVRPPRLPRPRPRPKMGPRP	0.0797
RRIRIRPPRLPRPRPRPSRRPRP	0.35
RRIRHRPPRLPRPRPRPILQPRP	-0.152
RRIRYRPPRLPRPRPRPSHMPRP	-0.0573
RRIRQRPPRLPRPRPRPVHWPRP	0.188
RRIRNRPPRLPRPRPRPIMKPRP	-0.059

Sequence	shrunken log2 fold change
RRIRYRPPRLPRPRPRPCDTPRP	-0.0977
RRIRWRPPRLPRPRPRPFRAPRP	-0.112
RRIRCRPPRLPRPRPRPPYYPRP	-0.314
RRIRDRPPRLPRPRPRPQYPPRP	-0.219
RRIRIRPPRLPRPRPRPTPVPRP	0.234
RRIRRRPPRLPRPRPRPQSCPRP	0.107
RRIRHRPPRLPRPRPRPVNLPRP	-0.0241
RRIRERPPRLPRPRPRPRNFPRP	-0.456
RRIRERPPRLPRPRPRPMHTPRP	0.102
RRIRERPPRLPRPRPRPLQKPRP	-0.113
RRIRIRPPRLPRPRPRPCTSPRP	-0.438
RRIRQRPPRLPRPRPRPVRDPRP	0.556
RRIRHRPPRLPRPRPRPKYYPRP	0.046
RRIRWRPPRLPRPRPRPSYQPRP	-1.04
RRIRARPPRLPRPRPRPCHKPRP	-0.259
RRIRLRPPRLPRPRPRPQHHPRP	-0.54
RRIRRRPPRLPRPRPRPYCEPRP	-0.102
RRIRPRPPRLPRPRPRPNGMPRP	0.171
RRIRRRPPRLPRPRPRPNSNPRP	-0.302
RRIRVRPPRLPRPRPRPLPGPRP	0.547
RRIRDRPPRLPRPRPRPPMDPRP	0.28
RRIRKRPPRLPRPRPRPYRNPRP	0.00408

Sequence	shrunken log2 fold change
RRIRWRPPRLPRPRPRPMRTPRP	0.273
RRIRLRPPRLPRPRPRPFAFPRP	-0.442
RRIRWRPPRLPRPRPRPEQEPRP	0.0529
RRIRDRPPRLPRPRPRPSWHPRP	-0.0852
RRIRKRPPRLPRPRPRPFEPPRP	0.00335
RRIRARPPRLPRPRPRPVSAPRP	0.455
RRIRRRPPRLPRPRPRPLMRPRP	1.07
RRIRFRPPRLPRPRPRPDGKPRP	-0.3
RRIRMRPPRLPRPRPRPNGLPRP	0.062
RRIRGRPPRLPRPRPRPEFSPRP	1.15
RRIRHRPPRLPRPRPRPGSKPRP	-0.00664
RRIRLRPPRLPRPRPRPGKLPRP	-0.00186
RRIRYRPPRLPRPRPRPNRQPRP	-0.053
RRIRERPPRLPRPRPRPDCGPRP	0.0191
RRIRSRPPRLPRPRPRPWGTPRP	-0.222
RRIRARPPRLPRPRPRPMRRPRP	0.2
RRIRQRPPRLPRPRPRPQVHPRP	0.0124
RRIRPRPPRLPRPRPRPINTPRP	-0.844
RRIRRRPPRLPRPRPRPNQTPRP	0.0193
RRIRVRPPRLPRPRPRPDKKPRP	0.135
RRIRMRPPRLPRPRPRPRRQPRP	1.13
RRIRQRPPRLPRPRPRPTWWPRP	0.314

Sequence	shrunken log2 fold change
RRIRFRPPRLPRPRPRPTYHPRP	-0.428
RRIRTRPPRLPRPRPRPFIWPRP	-0.485
RRIRPRPPRLPRPRPRPWEMPRP	-0.157
RRIRVRPPRLPRPRPRPYFLPRP	-0.149
RRIRPRPPRLPRPRPRPHTAPRP	-0.205
RRIRCRPPRLPRPRPRPTISPRP	-0.381
RRIRERPPRLPRPRPRPFCHPRP	-0.0629
RRIRSRPPRLPRPRPRPMWTPRP	-0.0682
RRIRQRPPRLPRPRPRPVIPPRP	-1.12
RRIRKRPPRLPRPRPRPKTHPRP	0.4
RRIRNRPPRLPRPRPRPNPEPRP	-0.224
RRIRHRPPRLPRPRPRPEAWPRP	0.0548
RRIRMRPPRLPRPRPRPHEHPRP	0.301
RRIRDRPPRLPRPRPRPLHGPRP	0.01
RRIRWRPPRLPRPRPRPFLPPRP	-0.687
RRIRTRPPRLPRPRPRPNEWPRP	-0.0827
RRIRNRPPRLPRPRPRPRWAPRP	0.417
RRIRVRPPRLPRPRPRPQWGPRP	-0.149
RRIRRRPPRLPRPRPRPKQWPRP	0.294
RRIRNRPPRLPRPRPRPLFEPRP	0.205
RRIRSRPPRLPRPRPRPRFWPRP	0.269
RRIRERPPRLPRPRPRPYHYPRP	-0.102

Sequence	shrunken log2 fold change
RRIRMRPPRLPRPRPRPYSYPRP	0.0871
RRIRPRPPRLPRPRPRPPWLPRP	0.57
RRIRFRPPRLPRPRPRPHGAPRP	0.109
RRIRQRPPRLPRPRPRPVIFPRP	-0.0797
RRIRVRPPRLPRPRPRPGYCPRP	-0.307
RRIRRRPPRLPRPRPRPDTHPRP	-0.254
RRIRCRPPRLPRPRPRPDWIPRP	-0.159
RRIRRRPPRLPRPRPRPTSNPRP	0.123
RRIRMRPPRLPRPRPRPEQQPRP	-0.0233
RRIRSRPPRLPRPRPRPKPWPRP	0.463
RRIRVRPPRLPRPRPRPCYLPRP	-0.56
RRIRNRPPRLPRPRPRPNRQPRP	-0.156
RRIRTRPPRLPRPRPRPRQSPRP	0.159
RRIRARPPRLPRPRPRPTKWPRP	0.4
RRIRFRPPRLPRPRPRPEQMPRP	0.19
RRIRPRPPRLPRPRPRPTPMPRP	0.208
RRIRERPPRLPRPRPRPCWMPRP	-0.239
RRIRHRPPRLPRPRPRPCNTPRP	-0.416
RRIRSRPPRLPRPRPRPNAHPRP	-0.184
RRIRPRPPRLPRPRPRPATVPRP	-0.0314
RRIRMRPPRLPRPRPRPFCNPRP	-0.148
